Reference: publication PMC10681739, “High-throughput data and modeling reveal insights into the mechanisms of cooperative DNA-binding by transcription factor proteins”

T1: ETS1 x2 (Homo sapiens, UniProt P14921)
T1 sequence: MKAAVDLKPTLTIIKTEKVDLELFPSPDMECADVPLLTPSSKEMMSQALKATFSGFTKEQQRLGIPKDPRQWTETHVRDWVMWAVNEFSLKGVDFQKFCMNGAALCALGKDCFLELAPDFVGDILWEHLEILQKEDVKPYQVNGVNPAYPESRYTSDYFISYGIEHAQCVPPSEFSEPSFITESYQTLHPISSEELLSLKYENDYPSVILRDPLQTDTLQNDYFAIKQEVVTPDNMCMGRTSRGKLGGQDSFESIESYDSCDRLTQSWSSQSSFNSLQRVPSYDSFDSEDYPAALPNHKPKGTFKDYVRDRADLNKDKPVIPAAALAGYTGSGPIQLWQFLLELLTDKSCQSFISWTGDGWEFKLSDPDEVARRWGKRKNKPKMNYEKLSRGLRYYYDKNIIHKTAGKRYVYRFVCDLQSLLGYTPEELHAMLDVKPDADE


What follows are binders tested against T1, ETS1 x2 (assay: gcPBM; 10 nM ETS1). Conditions: tags: N-terminal GST (pDEST15), kept (PMC6008103); chain copies: 2; label: surface-attached array probe.

Binder | binding signal
Table S4 A row 356 (dsDNA) DNA 1: TTGGGCCATTGTTTTCCTGCTTCCTCCCTTCAAGCC DNA 2: GGCTTGAAGGGAGGAAGCAGGAAAACAATGGCCCAA | 1590 PBM fluorescence, median of replicate spots
Table S4 A row 1545 (dsDNA) DNA 1: CTTCGAAGAGATTTCCTCCCGGAAAGGCCGAGCATT DNA 2: AATGCTCGGCCTTTCCGGGAGGAAATCTCTTCGAAG | 1350 PBM fluorescence, median of replicate spots
Table S4 A row 1809 (dsDNA) DNA 1: AGGGCAGGATGCCAAGATGAACTACATTTCCTGGCA DNA 2: TGCCAGGAAATGTAGTTCATCTTGGCATCCTGCCCT | 1160 PBM fluorescence, median of replicate spots
Table S4 A row 273 (dsDNA) DNA 1: TAATACAACTGGGGAAGTCACTTCCTTGCTGAGCTT DNA 2: AAGCTCAGCAAGGAAGTGACTTCCCCAGTTGTATTA | 849 PBM fluorescence, median of replicate spots
Table S4 A row 834 (dsDNA) DNA 1: AAGGCAGGAGGATGTGCTCGCGGTTTCCTGTGATGT DNA 2: ACATCACAGGAAACCGCGAGCACATCCTCCTGCCTT | 1650 PBM fluorescence, median of replicate spots
Table S4 A row 2174 (dsDNA) DNA 1: CAGCACGGGCCGCTTCCTTATCCGGTAAAGTGCGGG DNA 2: CCCGCACTTTACCGGATAAGGAAGCGGCCCGTGCTG | 2460 PBM fluorescence, median of replicate spots
Table S4 A row 382 (dsDNA) DNA 1: AGGAGGGAGGGAGCTTCCTTCCTGTTCTCTGAAGGC DNA 2: GCCTTCAGAGAACAGGAAGGAAGCTCCCTCCCTCCT | 3590 PBM fluorescence, median of replicate spots
Table S4 A row 1346 (dsDNA) DNA 1: TTCCCAGGAAGCCCCAAAGCCCTGGCTTCCGCCCAA DNA 2: TTGGGCGGAAGCCAGGGCTTTGGGGCTTCCTGGGAA | 774 PBM fluorescence, median of replicate spots
Table S4 A row 700 (dsDNA) DNA 1: TGGGTGACACTCCTTCCGCCTTCCGTGACCCCCATC DNA 2: GATGGGGGTCACGGAAGGCGGAAGGAGTGTCACCCA | 2820 PBM fluorescence, median of replicate spots
Table S4 A row 2434 (dsDNA) DNA 1: AGCAACAACGTCACTTCCCTTCCGGACCACAAGGGG DNA 2: CCCCTTGTGGTCCGGAAGGGAAGTGACGTTGTTGCT | 3480 PBM fluorescence, median of replicate spots
Table S4 A row 1107 (dsDNA) DNA 1: ACGGCCACCAGGAGGAAACTTCCTCTGAATCTTCCA DNA 2: TGGAAGATTCAGAGGAAGTTTCCTCCTGGTGGCCGT | 872 PBM fluorescence, median of replicate spots
Table S4 A row 136 (dsDNA) DNA 1: TCTTTTGATTGGGCTTCCTTCCTGTGTTTTCTCAGA DNA 2: TCTGAGAAAACACAGGAAGGAAGCCCAATCAAAAGA | 2710 PBM fluorescence, median of replicate spots
Table S4 A row 2116 (dsDNA) DNA 1: CCCAGCGGGCGAACTTCCTTTCCGCGCAACTCGCCC DNA 2: GGGCGAGTTGCGCGGAAAGGAAGTTCGCCCGCTGGG | 2660 PBM fluorescence, median of replicate spots
Table S4 A row 2126 (dsDNA) DNA 1: ACGCGAAAGCCCGGATAGACTTCCGCGCAGGGGCGG DNA 2: CCGCCCCTGCGCGGAAGTCTATCCGGGCTTTCGCGT | 2080 PBM fluorescence, median of replicate spots
Table S4 A row 2604 (dsDNA) DNA 1: AGGGGGCGGCGGCGGATGCCGGAAGAGTGCCCGCCC DNA 2: GGGCGGGCACTCTTCCGGCATCCGCCGCCGCCCCCT | 1530 PBM fluorescence, median of replicate spots
Table S4 A row 502 (dsDNA) DNA 1: CAGAGCAGCAGGAAACCATTATTTCCTCCTAGGTCT DNA 2: AGACCTAGGAGGAAATAATGGTTTCCTGCTGCTCTG | 2360 PBM fluorescence, median of replicate spots
Table S4 A row 258 (dsDNA) DNA 1: GCTTATCACTGAAGGAAACAGGATGCTAAATGTACG DNA 2: CGTACATTTAGCATCCTGTTTCCTTCAGTGATAAGC | 844 PBM fluorescence, median of replicate spots
Table S4 A row 1993 (dsDNA) DNA 1: ATCACGGGGCCCATCCGGGGAGGAAGGCGGCACAGG DNA 2: CCTGTGCCGCCTTCCTCCCCGGATGGGCCCCGTGAT | 950 PBM fluorescence, median of replicate spots
Table S4 A row 1205 (dsDNA) DNA 1: CTTAAACTGGAGGAAGTAAGTTTCCGTTAAAATGTG DNA 2: CACATTTTAACGGAAACTTACTTCCTCCAGTTTAAG | 1760 PBM fluorescence, median of replicate spots
Table S4 A row 1195 (dsDNA) DNA 1: GGCGTCGCCGCCGGATTCGACTTCCTGACGTCAGGC DNA 2: GCCTGACGTCAGGAAGTCGAATCCGGCGGCGACGCC | 1940 PBM fluorescence, median of replicate spots
Table S4 A row 2241 (dsDNA) DNA 1: GCGGCCTCCAAACATCCTCCGGAAGCTGCCACCTAC DNA 2: GTAGGTGGCAGCTTCCGGAGGATGTTTGGAGGCCGC | 2030 PBM fluorescence, median of replicate spots

Binder | binding signal
Table S4 A row 1336 (dsDNA) DNA 1: AGGTCGGAAGCGCTTCTACTGCAGCTCCGGAAAGGG DNA 2: CCCTTTCCGGAGCTGCAGTAGAAGCGCTTCCGACCT | 806 PBM fluorescence, median of replicate spots
Table S4 A row 2446 (dsDNA) DNA 1: TCCCACCGTCCCATCCGCTACTTCCCGAAAACTCAA DNA 2: TTGAGTTTTCGGGAAGTAGCGGATGGGACGGTGGGA | 1300 PBM fluorescence, median of replicate spots
Table S4 A row 1655 (dsDNA) DNA 1: CCGCGGGGTCCGGAACTGCTTGTTCCGGCAGTGGAA DNA 2: TTCCACTGCCGGAACAAGCAGTTCCGGACCCCGCGG | 1230 PBM fluorescence, median of replicate spots
Table S4 A row 1213 (dsDNA) DNA 1: ACAATATCCCAGGAAACAGACATCCGCGTGCTCGCG DNA 2: CGCGAGCACGCGGATGTCTGTTTCCTGGGATATTGT | 1480 PBM fluorescence, median of replicate spots
Table S4 A row 2210 (dsDNA) DNA 1: AAAACACCCGGATGGAGTCGCACTTCCCGAGTCTCG DNA 2: CGAGACTCGGGAAGTGCGACTCCATCCGGGTGTTTT | 1250 PBM fluorescence, median of replicate spots
Table S4 A row 2151 (dsDNA) DNA 1: AGGGCTCAGAGGCGGAAGCGGAAGCACATTCTGTCA DNA 2: TGACAGAATGTGCTTCCGCTTCCGCCTCTGAGCCCT | 3300 PBM fluorescence, median of replicate spots
Table S4 A row 180 (dsDNA) DNA 1: AGCAATACCAGGAAATGTGTTGCTTCCTAAAGTGAT DNA 2: ATCACTTTAGGAAGCAACACATTTCCTGGTATTGCT | 1370 PBM fluorescence, median of replicate spots
Table S4 A row 2690 (dsDNA) DNA 1: CGGGCCTCCGCCTTCCGCCCGGAACCCACCCCCGGG DNA 2: CCCGGGGGTGGGTTCCGGGCGGAAGGCGGAGGCCCG | 1830 PBM fluorescence, median of replicate spots
Table S4 A row 110 (dsDNA) DNA 1: TTGAGGGCTGGGCGGAAACGGAAAAGGCTAAGGGCC DNA 2: GGCCCTTAGCCTTTTCCGTTTCCGCCCAGCCCTCAA | 2150 PBM fluorescence, median of replicate spots
Table S4 A row 548 (dsDNA) DNA 1: GCGCACCGAAACGGAAGAACTTCCTTGATTAGCATA DNA 2: TATGCTAATCAAGGAAGTTCTTCCGTTTCGGTGCGC | 2740 PBM fluorescence, median of replicate spots
Table S4 A row 677 (dsDNA) DNA 1: ACAGCCCCGCCCGCTTCCTTCCTGCCTTCTCCACGT DNA 2: ACGTGGAGAAGGCAGGAAGGAAGCGGGCGGGGCTGT | 3660 PBM fluorescence, median of replicate spots
Table S4 A row 1360 (dsDNA) DNA 1: CAGAACGCACAGGAAGAGAGAGGAAACCAAGTGGGT DNA 2: ACCCACTTGGTTTCCTCTCTCTTCCTGTGCGTTCTG | 1100 PBM fluorescence, median of replicate spots
Table S4 A row 761 (dsDNA) DNA 1: TTGCCGGATGAGGTTGGTTGTCTCTAATTTCCTCTC DNA 2: GAGAGGAAATTAGAGACAACCAACCTCATCCGGCAA | 764 PBM fluorescence, median of replicate spots
Table S4 A row 1584 (dsDNA) DNA 1: TGTGTCGGACAGGAACTCGGCTTCCTTTGTGCCTCT DNA 2: AGAGGCACAAAGGAAGCCGAGTTCCTGTCCGACACA | 1040 PBM fluorescence, median of replicate spots
Table S4 A row 1015 (dsDNA) DNA 1: AGAAGCCACCACAGGAAACGGAAGAAGCCACCTCTG DNA 2: CAGAGGTGGCTTCTTCCGTTTCCTGTGGTGGCTTCT | 3380 PBM fluorescence, median of replicate spots
Table S4 A row 1719 (dsDNA) DNA 1: GGACCTACAGGAAGACTGACTAGCTTCCTTCGAGCC DNA 2: GGCTCGAAGGAAGCTAGTCAGTCTTCCTGTAGGTCC | 912 PBM fluorescence, median of replicate spots
Table S4 A row 1105 (dsDNA) DNA 1: GCCAGAGGGGCGGAAGAACCCGGAAGACCCAGGCAG DNA 2: CTGCCTGGGTCTTCCGGGTTCTTCCGCCCCTCTGGC | 832 PBM fluorescence, median of replicate spots
Table S4 A row 2556 (dsDNA) DNA 1: CGCGCCGGACCGGAAAGCCGGGGAAGTGGCCGAGGA DNA 2: TCCTCGGCCACTTCCCCGGCTTTCCGGTCCGGCGCG | 3050 PBM fluorescence, median of replicate spots
Table S4 A row 1239 (dsDNA) DNA 1: GGGAGGCCCTGCAGGAAGCAGGATGTTGACCCGGAG DNA 2: CTCCGGGTCAACATCCTGCTTCCTGCAGGGCCTCCC | 2610 PBM fluorescence, median of replicate spots
Table S4 A row 1324 (dsDNA) DNA 1: TTGAATGGACCTCATCCTGCTTCCTGCTCTTTGCAG DNA 2: CTGCAAAGAGCAGGAAGCAGGATGAGGTCCATTCAA | 3130 PBM fluorescence, median of replicate spots
Table S4 A row 1821 (dsDNA) DNA 1: TAATCTGCAACTTCCCTGTTCTTCCTGTTAGATGTG DNA 2: CACATCTAACAGGAAGAACAGGGAAGTTGCAGATTA | 2270 PBM fluorescence, median of replicate spots
